From doi:10.1101/2025.01.09.632086 (2025)

What was measured:
Experiment in all cases: ITC
IscU I8K = IscU I8K (E. coli, UniProt P0ACD4 1-128, I8K)
IscU R15A = IscU R15A (E. coli, UniProt P0ACD4 1-128, R15A)
IscU Y11A = IscU Y11A (E. coli, UniProt P0ACD4 1-128, Y11A)

Kd (IscU I8K): 18200 nM
Kd (IscU R15A): 2400 nM
Kd (IscU Y11A): 2700 nM
B1: HscA (natural protein)
chain: MALLQISEPGLSAAPHQRRLAAGIDLGTTNSLVATVRSGQAETLADHEGRHLLPSVVHYQQQGHSVGYDARTNAALDTANTISSVKRLMGRSLADIQQRYPHLPYQFQASENGLPMIETAAGLLNPVRVSADILKALAARATEALAGELDGVVITVPAYFDDAQRQGTKDAARLAGLHVLRLLNEPTAAAIAYGLDSGQEGVIAVYDLGGGTFDISILRLSRGVFEVLATGGDSALGGDDFDHLLADYIREQAGIPDRSDNRVQRELLDAAIAAKIALSDADSVTVNVAGWQGEISREQFNELIAPLVKRTLLACRRALKDAGVEADEVLEVVMVGGSTRVPLVRERVGEFFGRPPLTSIDPDKVVAIGAAIQADILVGNKPDSEMLLLDVIPLSLGLETMGGLVEKVIPRNTTIPVARAQDFTTFKDGQTAMSIHVMQGERELVQDCRSLARFALRGIPALPAGGAHIRVTFQVDADGLLSVTAMEKSTGVEASIQVKPSYGLTDSEIASMIKDSMSYAEQDVKARMLAEQKVEAARVLESLHGALAADAALLSAAERQVIDDAAAHLSEVAQGDDVDAIEQAIKNVDKQTQDFAARRMDQSVRRALKGHSVDEV
